Assay [1] has as its target HP1α (UniProt P45973). In words: SEC-MALS molar mass (CSD-mediated dimer). The settings on record: sites S11,S12,S13,S14. (In general: SEC sorts molecules by how far they enter the pores of the column.)
In assay [2] the target is HP1α ΔCSD, 1-120 (UniProt P45973). The assay can be described thus: SEC-MALS molar mass. As to conditions: reference: ΔCSD expressed without CK2; sites S11,S12,S13,S14.
In assay [3] the target is Phosphorylated CSD deletion mutant of HP1α_S97A (residues 1–120, phosphorylated at Ser11–Ser14) (human) (UniProt P45973). In words: SEC-SAXS; Superdex 200 Increase, 20 mM sodium phosphate pH 7.0, 1 mM DTT, 50 mM NaCl; Rg against concentration; profiles fitted with EOM and with reweighted CGMD ensembles (one- or two-molecule systems).

As a reminder, the stoichiometry N is the number of molecules, sites or subunits per partner or assembly.

Chain of HP1α (P45973 whole entry, change not shown): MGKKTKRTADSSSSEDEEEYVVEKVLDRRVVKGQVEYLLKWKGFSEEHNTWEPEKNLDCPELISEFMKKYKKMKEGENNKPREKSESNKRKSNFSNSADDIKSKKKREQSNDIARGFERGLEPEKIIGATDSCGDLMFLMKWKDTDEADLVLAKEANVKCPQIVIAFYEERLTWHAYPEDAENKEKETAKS

Take “HP1α (from UniProt P45973) pHP1α co-expressed with CK2, 50 mM NaCl”: the “other: molar mass” value in assay [1] (reference: HP1α expressed without CK2, 50 mM NaCl) is on record as “same; reference 45.7”.

In the case of “HP1α (from UniProt P45973) pHP1α co-expressed with CK2, 500 mM NaCl”, the “other: molar mass” value in assay [1] (reference: HP1α expressed without CK2, 500 mM NaCl) is listed as “same; reference 44.5”.

Turning to “HP1α ΔCSD, 1-120 (from UniProt P45973) pΔCSD co-expressed with CK2”, in assay [2], the “other: molar mass” value is listed as “none in both; reference 16.3”.

With “Phosphorylated CSD deletion mutant of HP1α_S97A (residues 1–120, phosphorylated at Ser11–Ser14) (from UniProt P45973 1-120) (domain or fragment)”, the stoichiometry N in assay [3] was found to be 2.

For the origin of these results see PMC11930357.
